Experimental data from patent publication US20150158910A1 (Bristol-Myers Squibb, published 2015).

T1: human PAR4 (protease activated receptor 4) (human, UniProt Q96RI0 48-385)
T1 sequence (looked up): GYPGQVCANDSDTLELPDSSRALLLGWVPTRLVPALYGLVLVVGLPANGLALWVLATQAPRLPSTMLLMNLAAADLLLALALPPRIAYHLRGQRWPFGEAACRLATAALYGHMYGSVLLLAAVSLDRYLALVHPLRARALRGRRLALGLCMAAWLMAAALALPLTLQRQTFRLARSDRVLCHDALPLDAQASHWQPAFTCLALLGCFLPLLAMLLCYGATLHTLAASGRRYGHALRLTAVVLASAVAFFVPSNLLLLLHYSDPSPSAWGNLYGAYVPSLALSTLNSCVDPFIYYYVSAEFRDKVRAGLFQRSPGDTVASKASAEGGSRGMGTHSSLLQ

T2: PAR1 (protease activated receptor 1), endogenous in HEK293 cells (UniProt P25116 42-425, limits assumed)
T2 sequence (looked up): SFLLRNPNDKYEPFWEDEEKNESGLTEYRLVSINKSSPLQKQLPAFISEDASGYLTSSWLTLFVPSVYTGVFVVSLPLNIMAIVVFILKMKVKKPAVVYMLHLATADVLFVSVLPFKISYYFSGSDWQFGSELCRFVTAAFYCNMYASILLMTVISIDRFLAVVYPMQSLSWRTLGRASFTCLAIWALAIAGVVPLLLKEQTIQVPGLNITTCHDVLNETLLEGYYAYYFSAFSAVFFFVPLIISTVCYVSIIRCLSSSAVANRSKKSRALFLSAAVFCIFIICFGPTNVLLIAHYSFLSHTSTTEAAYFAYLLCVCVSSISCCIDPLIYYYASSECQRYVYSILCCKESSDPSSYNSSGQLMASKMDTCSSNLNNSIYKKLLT


Tests used:
[1] = molecular target: T1, human PAR4 (protease activated receptor …); test: cell-based or functional assay
[2] = molecular target: T2, PAR1 (protease activated receptor 1), …; test: cell-based or functional assay

EC50 (µM) FLIPR Assay [1] | EC50, calcium mobilization (FLIPR/FDSS) in HEK293 PAR4 cells, PAR1 counter screen [2] | Binder
600 µM |  | AYPG [Peptide SEQ ID NO: 10]
159 µM |  | AYPGQVCAND [Peptide SEQ ID NO: 11]
4.8 µM |  | AYPGWLVKNG (free N-terminus; C-terminal amide) [PAR4 agonist peptide SEQ ID NO: 2]
 | 0.6 µM | SFFLRR [SFFLRR (SEQ ID NO: 35)]
